# Results: patent EP1298214A2, “Plant thioesterases” (Calgene LLC, priority 1990, dated 1991)
# Experiments:
# [1] = test system: material which fails to bind the ACP column (Lauroyl-CoA hydrolysis activity); assay: Substrate hydrolysis (ACP versus CoA) by peak unbound fraction of the ACP column; type: biochemical, Umbellularia californica; details: Flow-through (nonbinding) fraction; cpm of ether-extractable product
# Protocol: (§1) To assay for C12 thioesterase activity the following mixture is incubated at 30° for 30 min: "buffer" comprising 7mM KH2PO4-KOH pH 8, 20% v/v glycerol, 1mM dithiothreitol (DTT), 0.1% v/v Triton X100; sample to be tested for activity in the same or similar buffer as the "extraction buffer" described in Example 2; and 5µl of ^14C-radiolabeled lauroyl-ACP substrate for a total volume of 100µl and final lauroyl-ACP concentration of 0.5µM. Lauroyl-ACP substrate is prepared according to the method of Rock et al (Methods in Enzymology (1981) 72:397-403), using ACP prepared from Escherichia coli by the method of Rock and Cronan (Methods in Enzymology (1981) 71:341-351). The laurate is radiolabeled in the carboxylate group at a specific radioactivity of 50-60µCi/µmol.
# (§2) The reaction is stopped by adding 0.5ml cold (0°) 10% v/v acetic acid. […] After settling for a few minutes the upper ether layer is transferred to 5ml scintillation fluid for determination of radioactivity by liquid scintillation spectrometry. Additional ether extractions may be performed to recover remaining traces of the reaction product for more accurate quantitation of the enzyme activity if desired. The amount of ether-extracted radioactivity is a direct measure of C12-preferring acyl-ACP thioesterase activity, provided the amount of enzyme is not sufficient to hydrolyze more than about 25% of the substrate. […]
# [2] = biological target: T1, Bay C12-preferring acyl-ACP thioesterase (Umbellularia californica, UniProt Q41635); assay: Substrate hydrolysis (ACP versus CoA) by peak gradient-eluted fraction of the ACP column; type: biochemical; set-up: The cotyledons from such seeds are dissected from the other seed parts and stored frozen at -70°; This comprises the source tissue for enzyme extraction; from tissue; host or cells: immature seed cotyledons of Umbellularia californica; details: cpm of ether-extractable product
# T1 sequence (Q41635 84-382): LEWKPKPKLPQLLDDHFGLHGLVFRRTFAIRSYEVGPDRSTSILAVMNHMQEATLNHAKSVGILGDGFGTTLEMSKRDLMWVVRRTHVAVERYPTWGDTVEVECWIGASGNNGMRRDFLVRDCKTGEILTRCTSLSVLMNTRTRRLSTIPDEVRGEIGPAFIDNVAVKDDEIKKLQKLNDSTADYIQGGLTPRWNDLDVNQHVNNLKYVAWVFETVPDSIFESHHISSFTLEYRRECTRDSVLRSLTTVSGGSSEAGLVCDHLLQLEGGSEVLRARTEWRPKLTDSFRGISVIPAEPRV
# Protocol: as §1, §2
# [3] = test system: Bay seeds extractable C12-preferring acyl-ACP thioesterase and lauroyl-CoA hydrolysis activity; assay: Extractable hydrolysis activity at two stages of Bay seed development; type: biochemical, Umbellularia californica; details: cpm ether-extractable radioactivity
# Protocol: as §1
# The reaction is stopped by adding 0.5ml cold (0°) 10% v/v acetic acid. The fatty acid product of the hydrolytic enzyme action is extracted away from the unhydrolyzed substrate by adding 1ml diethyl ether and mixing vigorously. After settling for a few minutes the upper ether layer is transferred to 5ml scintillation fluid for determination of radioactivity by liquid scintillation spectrometry. Additional ether extractions may be performed to recover remaining traces of the reaction product for more accurate quantitation of the enzyme activity if desired. The amount of ether-extracted radioactivity is a direct measure of C12-preferring acyl-ACP thioesterase activity, provided the amount of enzyme is not sufficient to hydrolyze more than about 25% of the substrate. With greater activity than this the relationship between radioactivity in the ether layer and the quantity of enzyme becomes markedly nonlinear. The enzyme preparation must then be diluted appropriately to bring the activity into the linear range of the assay.
# Further evidence that the C12-preferring acyl-ACP thioesterase is involved in the biosynthesis of laurate groups that predominate in the Bay seeds comes from a comparison of the extractable activity of the enzyme at two different stages of seed development. As shown in the following table, Table 5, very young seeds, which contain only long-chain fatty acids and insignificant amounts of laurate, yield much less C12-preferring ACP thioesterase than older seeds that have accumulated significant amounts of laurate. Thus it appears that significant activity of this enzyme is only present when the seeds are accumulating laurate. Additionally, there appears to be much less difference in lauroyl-CoA hydrolysis activity, consistent with their being different enzymes as discussed above in Example 5.
substance,measurement,setting,value
lauroyl-ACP [12:0-ACP],Activity on Substrate,[1],300 cpm
same,Activity on Substrate,[2],2772 cpm
same,Hydrolysis / Thioesterase Activity In Assays,[3]; Normal Seeds (2g/cotyledon pair),4704 cpm
same,Hydrolysis / Thioesterase Activity In Assays,[3]; Young Seeds (0.5g/cotyledon pair),376 cpm
